Assay results from the DeepSol protein solubility set.

Assay: soluble on expression in E. coli; label from the status in PepcDB or PDB records
With “MKYAVLIGDGMADYPIEELGSRTILQAARTPAMDSIAARGKTGLAKTVPEGFPPGSDVANMSIFGYDPAIYYSGRAPLEAASMGVALAADDVAFRCNLITIENGKIKDYSAGHISSDEAEILIDTLDSELRTEKVRFYPGISYRHLIVAGNDLGAETECLEHHHHHH” the “soluble on expression in E. coli” value was “soluble”.
With “MKYFAYGSNMSLLRLKERVPSSKKLGIVTLKKHQLRFNMSGDDDSGKCDSFETNNHEDIVIGALFEIDENEKDALDRAESLGDGYDEKFVFVQSNSGEVFEALTYYAIKIDASLQPYSWYLNHVIIGAKETKLPTDYLAIIESVECIEDPDTSRDAKQRAMYVLEHHHHHH” the “soluble on expression in E. coli” value was “not soluble”.
In the case of “MKYMIGVDGGGTKTEAIAFDKDGNELVRATSGFGNILIDFEEALVHIMEAINQCQKSLINGHCVCVCLGLAGISGANTNELTLRLKKKYGTKIEIFNDAMIAHAAALKGKDGILTIGGTGAICIGKKGEVYQYSGGWGHILGDEGSGYWIALQALKKMAIQFDQGISLCPLSLNIQRQFQLLTPSHIKSLVYTSSKDKIAAIAPLVIQEARDGNDDAHEIMMQAGKELARITVNVYNKLNFKHSTPIAASGSILRLVPEIFAVFKKCCEESMKEITFVSQAEMAVKGTYYLMRDIYFLEHHHHHH”, the “soluble on expression in E. coli” value is reported as “soluble”.
With “MKYQVSLLAVKDIEVSKKFYKELFEQEIELDLGKNVTFKGGFAIQEDFAWLTGINPDTIIQKSNNMELYFEVDDFDEFIEKLNYYKDVEFVHKPLKHEWQQRVVRIYDPDKHIIEIGESMEVIARRYLSEGYSVEETSKIIQHPIEFVKQCENSKELEHHHHHH” the “soluble on expression in E. coli” value was “soluble”.
With “MKYVDGFVVAVPADKKDAYREMAAKAAPLFKEFGALRIVECWASDVPDGKVTDFRMAVKAEENEEVVFSWIEYPSKEVRDAANQKMMSDPRMKEFGESMPFDGKRMIYGGFESIIDE” the “soluble on expression in E. coli” value was “soluble”.
In the case of “MKYVEVIMSIKDEGEFFMKVLQKNEFLQKSNETLASILDMLEKLPVVKFDEIEADKAVLVIIDMTNGFAKEGALKSDAVKELIPRICELSEICDRRKIRKIAFADCHTDESPEFDAYPKHCMKGTAESEIVDEIKNIGGYTLIEKNSTNGFLEEAFRKWLLENPDINTFILTGDCTDICVQQFAITLKAYFNMNNKRARVIVPLNAVDTYDLGVHDRNLMNVMAAYNMIINGVEVVRDIVE”, the “soluble on expression in E. coli” value is reported as “not soluble”.
With “MLALGKLLELTLAGREPAEKTQLTVEGVRMRWLAEGALEVRPPQARDNGTDLLLSAGIHGNETAPIELLDELIRSIARGDLKPRARILFLFGNPAAMRLGARYVEQDVNRLFNGRHEQSGGAEALRACELERLAASFFSLPDRYRLHYDLHTAIRGSKIEQFALYPWKEGRQHSRFELARLRAAGISAVLLQNKPSIVFSAYTYEQLGAEAFTLELGKARPFGQNRHVNLAPLRLRLEQIIEGSEPQPDERLEGLQLFSVAREVIKRSDAFTFNLADDVENFSELEKGYVLAEDVSDSRWVVKEEGARIIFPNPKVKNGLRAGIVIVPADADGLGLEHHHHHH” the “soluble on expression in E. coli” value was “not soluble”.
For “MLAYQGTQIKEKRDEDAGFDLCVPYDIMIPVSDTKIIPTDVKIQVPPNSFGWVTGKSSMAKQGLLINGGIIDEGYTGEIQVICTNIGKSNIKLIEGQKFAQLIILQHHSNSRQPWDENKISQRGDKGFGSTGVF”, the “soluble on expression in E. coli” value was “soluble”.
With “MLDFKPIELKDRELFHEYLKDYDFLTYEYSFLTLYIWRKMYNTEFAIVDDTIVIKKRTANNGTYFMQPIGADKSKIADITLKLNTLRKNNPDFKYLYGDVETPFLEQLHENFGNLVTSHEDKNNFDYIFNSKDLIKLSGKKYHRKKNQYNQFIKKYDYRIEEIQSPEVIKNCIDLSLKWYDYKSLQSEQLKNEQKAIFDIFSNIKIFNNIKGIAVYVNNEIAGFAIGEKLNSKMATVHFEKGNYNFSGIYPFLNKSLVEIFFRDVEFINLQEDLGLEGLRRAKSAYQPIKLEKKYLVNI” the “soluble on expression in E. coli” value was “not soluble”.
For “MLDHVSITVSDIAVAEPFYDAIMAALGVVKVGARGDWLGYGERARPEHPDRVYLSIRKGDRPEPAYGRHWCFKATSRAVVDAFWQAGLAHGGVDQGAPGLRDYHPGYYAAFIADPDGNRLEAVCHTLG”, the “soluble on expression in E. coli” value was “not soluble”.
With “MLDNVLRIATRQSPLALWQAHYVKDKLMASHPGLVVELVPMVTRGDVILDTPLAKVGGKGLFVKELEVALLENRADIAVHSMKDVPVEFPQGLGLVTICEREDPRDAFVSNNYDSLDALPAGSIVGTSSLRRQCQLAERRPDLIIRSLRGNVGTRLSKLDNGEYDAIILAVAGLKRLGLESRIRAALPPEISLPAVGQGAVGIECRLDDSRTRELLAALNHHETALRVTAERAMNTRLEGGCQVPIGSYAELIDGEIWLRALVGAPDGSQIIRGERRGAPQDAEQMGISLAEELLNNGAREILAEVYNGDAPA” the “soluble on expression in E. coli” value was “soluble”.
For “MLERILSRENLIQALERVEKNKGSYGVDEMDVKSLRLHLHENWTSIRNEIIEGSYFPKPVRRVEIPKPNGGVRKLGIPTVMDRFLQQAIAQILTQLYDPTFSERSFGFRPHRRGHNAVRQAKQWMKEGYRWVVDIDLEKFFDKVNHDRLMRKLSSRIQDPRVLQLIRRYLQTGVMERGLVSPNTEGTPQGGPLSPLLSNIVLDELDNELEKRGLKFVRYADDCNIYVRSKRAGLRIMESVTSFIENRLKLKVNREKSAVDRPWNRKFLGFSFTRGKDPKMRVSKESVKRLKQRIRELTSRRHSMKMSDRLRRLNRYLTGWLGYYQLVDTPSILAQIDAWIRRRLRMIRWKEWKTTSARQKNLVRLGIKKAKAWQWANSRKGYWRVAHSPIMDYALNSEYWKGQGLMSLAERYQTRRWTLEHHHHHH”, the “soluble on expression in E. coli” value was “not soluble”.
With “MLETNVDQKSFKFKIVLLGEGCVGKSSLVLRFVENKFSCKHLSTIQASFQNKTVNVEDCQADLHIWDTAGQEKYHALGPIYYRGSNGVLLVFDITDRKSFEKVKNWVLEIKTCLGNTAEILIVGNKIDLEEERQVTRQDAEAYAESEGALYMETSAQDNVGISDAFESLTAKMIEHSRTRSTEPPSTNRSIRLIDNDEAERSKKCCR” the “soluble on expression in E. coli” value was “not soluble”.
For “MLETRMQTTPLKIGISACLLGAKVRFDGGHKISHFVTNELDRYAEFVSVCPEMGMGLPVPRPTLRLISENERIALVETKDSSRDHTAALESYSQQKVAELQHAELCGYIVCAKSPSCGMERVKVYKHNGTEKDGVGVYTRILMEKMPWLPIEEDGRLNDPVLRENYITRVFCLHDFYTSMGDAPSAKKIVEFHSRYKLTLMAHNPQAYRALGRLVANVKQYPLDSFIQEYRLGLMQALAHRASRKNNTNVLMHLQGYFKRSLNKLQKAELAQVIESYRVGELPLLAPITLLKHYLALFPDAYLAQQRYLNPYPQELKLRYGL”, the “soluble on expression in E. coli” value was “not soluble”.
With “MLFLDSQFVYGAGAQLFNHFCYFFGTQQKFPPFLSIDENQYIIFIATEQFIREIKLLIALLLNENTAKYFQKALLCLKERKLVKIAKVGNVIEFKNGLTGVVEKVNENSVIVDVTIMDNYRDLELDSLTVVNHKNYKIIRDSYLEHHHHHH” the “soluble on expression in E. coli” value was “soluble”.
